# According to the supplement of paper PMC9112550, “Optimization of the antimicrobial peptide Bac7 by deep mutational scanning” (BMC Biology, 2022):
# System: Escherichia coli TOP10
# Assay: shrunken log2 fold change of peptide-encoding DNA abundance (4.5 h post-induction vs induction); higher = less antimicrobial activity (less host growth inhibition)
# Details: time post-induction: 4.5 h; library: site-saturation at positions 5, 18, 19, 20
# 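Note: peptides expressed intracellularly from a pBAD plasmid library in pooled LB shake-flask culture, induced with 0.3% L-arabinose, DNA abundance read by NGS, three biological replicates, DESeq2 with apeglm shrinkage.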
row,Sequence,shrunken log2 fold change
1,RRIRIRPPRLPRPRPRPGQTPRP,0.0693
2,RRIRPRPPRLPRPRPRPIKCPRP,-0.358
3,RRIRVRPPRLPRPRPRPEHLPRP,-0.171
4,RRIRNRPPRLPRPRPRPKAYPRP,0.0121
5,RRIRVRPPRLPRPRPRPDRSPRP,-0.039
6,RRIRERPPRLPRPRPRPCVQPRP,-0.0665
7,RRIRGRPPRLPRPRPRPTEGPRP,0.795
8,RRIRHRPPRLPRPRPRPHSFPRP,-0.0282
9,RRIRRRPPRLPRPRPRPGSEPRP,0.00207
10,RRIRMRPPRLPRPRPRPEIWPRP,1.2
11,RRIRVRPPRLPRPRPRPREYPRP,0.0223
12,RRIRRRPPRLPRPRPRPDTNPRP,1.31
13,RRIRERPPRLPRPRPRPCPPPRP,-0.0496
14,RRIRWRPPRLPRPRPRPKDYPRP,0.0778
15,RRIRYRPPRLPRPRPRPTRRPRP,0.358
16,RRIRWRPPRLPRPRPRPFGDPRP,-0.249
17,RRIRGRPPRLPRPRPRPEVAPRP,1.88
18,RRIRGRPPRLPRPRPRPSLCPRP,1.73
19,RRIRQRPPRLPRPRPRPMKKPRP,0.0152
20,RRIRRRPPRLPRPRPRPPCFPRP,0.741
21,RRIRFRPPRLPRPRPRPKLSPRP,-0.258
22,RRIRDRPPRLPRPRPRPEPVPRP,0.576
23,RRIRERPPRLPRPRPRPQCHPRP,-0.449
24,RRIRGRPPRLPRPRPRPGSHPRP,0.12
25,RRIRNRPPRLPRPRPRPGEMPRP,0.336

row,Sequence,shrunken log2 fold change
1,RRIRQRPPRLPRPRPRPRSWPRP,0.681
2,RRIRVRPPRLPRPRPRPEASPRP,0.0108
3,RRIRMRPPRLPRPRPRPDARPRP,-0.0547
4,RRIRFRPPRLPRPRPRPNYNPRP,-1.12
5,RRIRQRPPRLPRPRPRPGSAPRP,0.104
6,RRIRERPPRLPRPRPRPHIIPRP,-0.412
7,RRIRLRPPRLPRPRPRPDRQPRP,0.00462
8,RRIRMRPPRLPRPRPRPDLDPRP,2.65
9,RRIRTRPPRLPRPRPRPSNVPRP,-0.337
10,RRIRERPPRLPRPRPRPKVYPRP,-0.126
11,RRIRARPPRLPRPRPRPNSKPRP,-0.155
12,RRIRWRPPRLPRPRPRPYLMPRP,-0.319
13,RRIRKRPPRLPRPRPRPCGWPRP,0.179
14,RRIRMRPPRLPRPRPRPGYIPRP,-0.0175
15,RRIRDRPPRLPRPRPRPGPMPRP,-0.00245
16,RRIRMRPPRLPRPRPRPLRMPRP,1.88
17,RRIRLRPPRLPRPRPRPDETPRP,-0.0184
18,RRIRWRPPRLPRPRPRPPQAPRP,0.733
19,RRIRYRPPRLPRPRPRPLVFPRP,-0.439
20,RRIRDRPPRLPRPRPRPKSRPRP,0.0765
21,RRIRARPPRLPRPRPRPHEFPRP,0.293
22,RRIRNRPPRLPRPRPRPIPFPRP,-0.0196
23,RRIRVRPPRLPRPRPRPGEHPRP,-0.035
24,RRIRNRPPRLPRPRPRPVANPRP,-0.0653
25,RRIRPRPPRLPRPRPRPRTLPRP,0.0704

row,Sequence,shrunken log2 fold change
1,RRIRPRPPRLPRPRPRPEYRPRP,0.0278
2,RRIRLRPPRLPRPRPRPYETPRP,-0.0853
3,RRIRHRPPRLPRPRPRPTVTPRP,-0.0378
4,RRIRKRPPRLPRPRPRPKTPPRP,0.477
5,RRIRCRPPRLPRPRPRPISDPRP,-0.237
6,RRIRWRPPRLPRPRPRPPIWPRP,0.628
7,RRIRSRPPRLPRPRPRPIFPPRP,1.04
8,RRIRIRPPRLPRPRPRPCICPRP,-0.148
9,RRIRWRPPRLPRPRPRPAPWPRP,0.319
10,RRIRFRPPRLPRPRPRPDTNPRP,-0.208
11,RRIRQRPPRLPRPRPRPTSLPRP,-0.0738
12,RRIRTRPPRLPRPRPRPMWAPRP,0.0473
13,RRIRNRPPRLPRPRPRPMFYPRP,-0.166
14,RRIRMRPPRLPRPRPRPRIRPRP,0.79
15,RRIRERPPRLPRPRPRPMDQPRP,-0.00192
16,RRIRMRPPRLPRPRPRPVVNPRP,0.0747
17,RRIRSRPPRLPRPRPRPNMWPRP,-0.311
18,RRIRYRPPRLPRPRPRPTPKPRP,0.167
19,RRIRMRPPRLPRPRPRPMVPPRP,-0.0114
20,RRIRFRPPRLPRPRPRPYPCPRP,-0.0436
21,RRIRVRPPRLPRPRPRPMAYPRP,-0.012
22,RRIRDRPPRLPRPRPRPNLEPRP,0.27
23,RRIRWRPPRLPRPRPRPDVIPRP,-0.118
24,RRIRKRPPRLPRPRPRPDHHPRP,-0.37
25,RRIRIRPPRLPRPRPRPSKTPRP,0.0676

row,Sequence,shrunken log2 fold change
1,RRIRGRPPRLPRPRPRPTDSPRP,0.526
2,RRIRPRPPRLPRPRPRPFYIPRP,-0.312
3,RRIRNRPPRLPRPRPRPCQLPRP,-0.0247
4,RRIRARPPRLPRPRPRPQESPRP,0.0266
5,RRIRKRPPRLPRPRPRPYPWPRP,-0.4
6,RRIRERPPRLPRPRPRPVTEPRP,-0.255
7,RRIRHRPPRLPRPRPRPAFCPRP,0.0444
8,RRIRLRPPRLPRPRPRPPRGPRP,0.637
9,RRIRQRPPRLPRPRPRPSIDPRP,-0.607
10,RRIRCRPPRLPRPRPRPHENPRP,-0.0452
11,RRIRQRPPRLPRPRPRPEWEPRP,0.00902
12,RRIRDRPPRLPRPRPRPRSVPRP,0.165
13,RRIRWRPPRLPRPRPRPQVLPRP,-0.0271
14,RRIRFRPPRLPRPRPRPDFQPRP,-0.546
15,RRIRCRPPRLPRPRPRPSDWPRP,-0.0723
16,RRIRYRPPRLPRPRPRPESEPRP,-0.0162
17,RRIRDRPPRLPRPRPRPLPKPRP,0.368
18,RRIRARPPRLPRPRPRPWNNPRP,-1.02
19,RRIRGRPPRLPRPRPRPEKYPRP,0.172
20,RRIRYRPPRLPRPRPRPHHEPRP,-0.0815
21,RRIRPRPPRLPRPRPRPYAWPRP,-0.152
22,RRIRRRPPRLPRPRPRPSMRPRP,0.557
23,RRIRRRPPRLPRPRPRPCYCPRP,-0.00192
24,RRIRQRPPRLPRPRPRPKFYPRP,-0.206
25,RRIRMRPPRLPRPRPRPIQNPRP,-0.157

row,Sequence,shrunken log2 fold change
1,RRIRQRPPRLPRPRPRPSAHPRP,-0.075
2,RRIRMRPPRLPRPRPRPFVMPRP,-0.0957
3,RRIRPRPPRLPRPRPRPGPPPRP,0.366
4,RRIRPRPPRLPRPRPRPCATPRP,0.132
5,RRIRERPPRLPRPRPRPRFAPRP,0.0577
6,RRIRKRPPRLPRPRPRPCFGPRP,0.194
7,RRIRPRPPRLPRPRPRPAETPRP,-0.0458
8,RRIRRRPPRLPRPRPRPKIRPRP,0.0898
9,RRIRWRPPRLPRPRPRPKAIPRP,-0.00613
10,RRIRGRPPRLPRPRPRPLSNPRP,0.416
11,RRIRWRPPRLPRPRPRPLWLPRP,0.202
12,RRIRQRPPRLPRPRPRPKRQPRP,0.0299
13,RRIRPRPPRLPRPRPRPKKCPRP,-0.352
14,RRIRCRPPRLPRPRPRPLFAPRP,0.0307
15,RRIRCRPPRLPRPRPRPSLLPRP,-0.386
16,RRIRNRPPRLPRPRPRPQKAPRP,-0.0017
17,RRIRMRPPRLPRPRPRPDNGPRP,-0.0901
18,RRIRERPPRLPRPRPRPPLAPRP,0.433
19,RRIRSRPPRLPRPRPRPLCTPRP,0.0479
20,RRIRVRPPRLPRPRPRPHGSPRP,-0.156
21,RRIRLRPPRLPRPRPRPQFEPRP,-0.12
22,RRIRCRPPRLPRPRPRPRDMPRP,-0.167
23,RRIRSRPPRLPRPRPRPQYLPRP,-0.683
24,RRIRKRPPRLPRPRPRPPFQPRP,0.119
25,RRIRARPPRLPRPRPRPVKPPRP,0.236

row,Sequence,shrunken log2 fold change
1,RRIRPRPPRLPRPRPRPGQKPRP,-0.00227
2,RRIRYRPPRLPRPRPRPAFNPRP,-0.431
3,RRIRCRPPRLPRPRPRPAATPRP,0.776
4,RRIRIRPPRLPRPRPRPPYVPRP,-0.121
5,RRIRNRPPRLPRPRPRPNGNPRP,-0.0621
6,RRIRNRPPRLPRPRPRPKCNPRP,-0.819
7,RRIRARPPRLPRPRPRPNIMPRP,-0.266
8,RRIRERPPRLPRPRPRPVRQPRP,0.412
9,RRIRARPPRLPRPRPRPQHVPRP,0.0233
10,RRIRIRPPRLPRPRPRPNGSPRP,0.0061
11,RRIRTRPPRLPRPRPRPWRCPRP,-0.00386
12,RRIRYRPPRLPRPRPRPPSSPRP,-0.154
13,RRIRYRPPRLPRPRPRPHRDPRP,-0.288
14,RRIRFRPPRLPRPRPRPQHIPRP,-0.51
15,RRIRHRPPRLPRPRPRPFYRPRP,-0.0975
16,RRIRWRPPRLPRPRPRPSGEPRP,0.138
17,RRIRFRPPRLPRPRPRPCRWPRP,0.0901
18,RRIRIRPPRLPRPRPRPQHTPRP,-1
19,RRIRYRPPRLPRPRPRPGAIPRP,-0.284
20,RRIRARPPRLPRPRPRPQMRPRP,0.62
21,RRIRCRPPRLPRPRPRPHRPPRP,-0.0186
22,RRIRLRPPRLPRPRPRPVLNPRP,-0.325
23,RRIRCRPPRLPRPRPRPWFGPRP,-0.374
24,RRIRKRPPRLPRPRPRPRGGPRP,0.848
25,RRIRSRPPRLPRPRPRPMSVPRP,-0.0847
